Numbering of substitutions follows the chain as printed.
B1: CL-510082 (antibody, V domains shown)
VH: QVQLVESGGGVVQPGKSLRLSCVASGFTFSNNGMHWIRQAPGKGLEWVAIIWYDGSNKFYADSVKGRFTISRDNSHNTLYLQMNSLRAEDTAVYYCARDRMFGSGTWNYFDPWGQGTLVTVSS
VL: EIVLTQSPATLSLSPGERATLSCRASQSVSTYLAWYQQKPGQAPRLLIYDASNRATGIPARFSGSGSGTDFTLTISSLEPEDFAVYYCQQRSYWWTFGQGTKVEIK
modifications: peptides N-terminally acetylated and C-terminally amidated
B2: Ky311 (antibody, V domains shown)
VH: QMHLVESGGGVVQPGRSLRLSCVASGFTFNNHGMHWVRQAPGKGLEWVAVIWHDGSNKFYADSVNGRFIVSRDNSKNTLYLHMNSLRAEDTAVYYCARDFFVSGSYNYFDPWGQGTLVTVSS
VL: B1 VL with A9V, T31N, S52A, I58T, Y87F, Y93K, W95F, Q99P, V103L, E104D
modifications: peptides N-terminally acetylated and C-terminally amidated
B3: CL-512191 (antibody, V domains shown)
VH: QVQLVESGGGVVQPGRSLRLSCAASGFTFSNYAMHWVRQAPGKGLEWVAVIWYDGSNKYYADSVKGRFTISRDDSKNTLYLQMNSLRAEDTAVYYCARDKGYRYGFNWFDPWGQGTLVTVSS
VL: QSVLTQPPSVSGAPGQRVTISCTGSSSNIGAGYDVHWYQKLPGTAPKLLIFSNSNRPSGVPDRFSGSKSGTSASLAITGLQAEDEADYYCQSYDSSLSGSRVFGGGTKLTVL
modifications: peptides N-terminally acetylated and C-terminally amidated
B4: CL-444592 (antibody, V domains shown)
VH: QVQLVESGGGVVQPGRSLRLSCAASGFTFSSYGMHWVRQAPGKGLEWVAVIWYDGSNKYYADSVKGRFTISRDNSKNTLYLQMNSLRAEDTAVYYCARDGNWNYNYYYGMDVWGQGTTVTVSS
VL: DIQLTQSPSFLSASVGDRVTITCWASQGISSYLAWYQQKPGKAPKLLIYAASTLQSGVPSRFSGSGSGTEFTLTISSLQPEDFATYYCQQLNSYPPTFGQGTRLEIK
modifications: peptides N-terminally acetylated and C-terminally amidated
B5: CL-458015 (antibody, V domains shown)
VH: QVHLVESGGGVVQPGRSLRLSCAASGFTFSNYGMHWVRQAPGKGLDWVAIIWYDGSNKFYADSVQGRFTISRDNSKNTLYLQMNSLRAEDTAVYYCAKVQDLLGVPSTLGDHYTTDVWGQGTSVTVSS
VL: DIQMTQSPSTLSASVGDRITITCRASQSINDWLAWYQQKAGKAPKLLIYKASSLESGVPSRFSGSGSGTDFTLTISSLQTDDFAIYYCQQYNHYWTFGQGTKVEIK
modifications: peptides N-terminally acetylated and C-terminally amidated
B6: CL-445457 (antibody, V domains shown)
VH: QVQLVESGGAVVQPGTSLRLSCAASGFTFSNYGIHWVRQAPGKGLQWVALIWYNGNNKFYADSVQGRFTISRDNSKNILYLQINSLSAEDTAVYYCARAFYSDSGNYMDYWGQGALVTVSS
VL: DIQMTQSPSSVSASVGDRVTITCRARQDISSRLAWYQQKPGKAPKILIYGASSLQSGVPSRFSASGSGTDFTLTISSLQPEDVASYFCQQANSFPWTFGQGTKVEIK
modifications: peptides N-terminally acetylated and C-terminally amidated
B7: CL-437492 (antibody, V domains shown)
VH: QEQLVESGGGVVQPGNSLRLSCVASGFTFSNHGMHWVRQAPGKGLEWVAIIWYDGSQKFYSDSVKGRFTISRDNSKNTLYLQMNSLRAEDTAIYYCARVDWSGNDWGWFDPWGQGTLVTVSS
VL: EIVLTQSPDTLSLSPGERATLSCRASQTLSSRHLAWYQQKPGQAPRLLIYGASSRATGIPDRFSGSGSGTDFTLTINRLEPEDFAVFYCQQYGRLWTFGQGTKVEIK
modifications: peptides N-terminally acetylated and C-terminally amidated
B8: CL-512508 (antibody, V domains shown)
VH: QVQLVESGGGVVQPGTSLRLSCGASGFTFSSYGMHWVRQAPGKGLEWVAIIWYDGNNKYYADSVKGRFTISRDNSKNTLYLQMNSLRAEDTAVYYCAKVGQFSTSSWGAFDIWGQGTMVTVSS
VL: B7 VL with D9G, S12P, T28S, L29V, R32S, H33Q, G58A, N77S, F87Y, G93S
modifications: peptides N-terminally acetylated and C-terminally amidated
B9: CL-512459 (antibody, V domains shown)
VH: QVQLVESGGGVVQPGRSLRLSCTASGFTFSDYGMHWVRQAPGKGLEWVSIIWYDGSKKYYADSVQGRFTISRDNSKNTLYLQMSSLRAEDTAVYYCARAYGSGSYYTFNYWGQGTLVTVSS
VL: EIVMTQSPATLSVSPGERATLSCRASQSVNSNLAWYQQKPGQAPRLLIYGASTRATGFPARFIGSGSGTDFTLTINSLQSEDFAVYYCQQYNHWWTFGQGTKVEIK
modifications: peptides N-terminally acetylated and C-terminally amidated
B10: CL-510433 (antibody, V domains shown)
VH: QVQLVESGGGVVQPGRSLRLSCVASGFTFSSYGMHWVRQAPGKGLEWVAVIWYDGSNKYYADSVKGRFTVSRDNSKNTLYLQMNSLRAEDTAVYYCARVYYYGSGSYSPYYYALDVWGHGTTVTVSS
VL: EIVMTQSPATLSVSPGERATLSCRASQSISSNLAWYQQKPGQAPRLLIYGASIRATGIPARFSGSGSGTEFTLSISILQSEDFAIYYCQQYNNWWTFGQGTKVEIK
modifications: peptides N-terminally acetylated and C-terminally amidated
B11: CL-512374 (antibody, V domains shown)
VH: QVQLVESGGGVVQPGRSLRLSCAASGFTFSSYGMHWVRQAPGKGLEWVAVIWYDGSNKYYADSVKGRFTISRDNSKNTLYLQMNSLRAEDTAVYYCARDGGGTTRSFDLWGRGTLVTVSS
VL: QSVLTQPPSVSGAPGQRVTISCTGSSSNIGAGYDVHWYQQLPGTAPKLLIYGNSNRPSGVPDRFSGSKSGTSASLAITGLQAEDEADYYCQSYDSSLSGSMFGGGTKLTVL
modifications: peptides N-terminally acetylated and C-terminally amidated
B12: CL-444387 (antibody, V domains shown)
VH: QVHLVESGGGVVQPGRSLRLSCVASGFSFSSYGMHWVRQAPGKGLEWVAIIWYDGSYTYYADSVKGRFTISRDNSKNTLYLQMNSLRVEDTAVYYCAKVGLSYNGRTGAFDIWGQGTMVTVSS
VL: not shown
modifications: peptides N-terminally acetylated and C-terminally amidated
B13: Ky230 (antibody, V domains shown)
VH: QVQLVESGGGVVQPGRSLRLSCAASGFTFSDYGMHWVRQAPGKGLEWVAIIWHDGSNKYYVDSVKGRFTISRDNSKNTLYLQMNSLRAEDTAVYYCARAASSFGSGFDYWGQGTLVTVSS
VL: DVVMTQSPLSLPVTLGQPASIFCRSSQSLVYSDGNTYLNWFQRRPGQSPRRLIYKVSDRDSGVPDRFSGSGSGTDFTLQISRVEAEDVGVYYCMQGTHWPPTFGQGTKVEIK
modifications: peptides N-terminally acetylated and C-terminally amidated
B14: CL-453181 (antibody, V domains shown)
VH: QVQLVESGGGVVQPGRSLRLSCAASGFTFSYYGMHWVRQAPGKGLEWVSIIWYDGSNKFYADSVKGRFTISRDNSKDTLYLEMNSLRAEDTAVYYCARVEFYNGSGRDFYYGLDVWGQGTTVTVSS
VL: EIVMTQSPATLSVSPGEGATLSCRASQSVSSNLAWYQQKPGQAPRLLISGASTRATGVPARFSGSGSGTEFALTISSLQSEDFAVYYCQQYSKLWTFGQGTKVEIK
modifications: peptides N-terminally acetylated and C-terminally amidated
B15: CL-449759 (antibody, V domains shown)
VH: QVHLVESGGGVVQPGESQRLSCAASGFTFSNYGMHWVRQAPGKGLEWVALIWYDGSNKFYADSVKGRFTISRDNSKNTLYLHMNSLRAEDTAMYYCAKVPNWNDDKYTMDVWGQGTTVTVTS
VL: not shown
modifications: peptides N-terminally acetylated and C-terminally amidated
B16: CL-531271 (antibody, V domains shown)
VH: QVQLVESGGGEVQPGRSLRLSCAASGFTFSNYGMHWVRQAPGKGLEWVALIWYDGNNKFYADSVNGRFTISRDNSNNTLYLQMNSLRAEDTGVYYCARSFYYVSGNFFDYWGQGTLVTVSS
VL: DIPMTQSPSSVSASVGDRVTITCRASQGISTWLAWYQQKPGKAPKFLIYAASSLQSGVPSRFSGSGSGTDFTLTIYSLQPEDFATYYCQQGNSFPWTFGQGTKVEIK
modifications: peptides N-terminally acetylated and C-terminally amidated
B17: CL-511862 (antibody, V domains shown)
VH: QVQLVESGGGVVQPGKSLRLSCAASGFSFSSSGMHWVRQAPDKGLEWVAIIWYDGSHKFYADSVKGRFTISRDNSDNTLFLQMDSLRAEDTAVYYCVRAYPTSYNGNYDKYGMDVWGQGTTVTVSS
VL: DIQMTQSPSTLSASVGDRVTIACRASQSISTWLAWYQQKPGKAPKLLIYKASTLESGVPSRFSGSGSGTEFTLTISSLQPDDFATYYCQQFTFYWTFGQGTKVEIK
modifications: peptides N-terminally acetylated and C-terminally amidated
B18: CL-459075 (antibody, V domains shown)
VH: QVQLVASGGGVVQPGRSLRLSCAASGFTFSNYGMHWVRQAPGKGLEWVSIIWYDGSKKYYSDSVKGRFTISRDNSKNTLYLQMNSLRAEDTAVYYCARAYGSGSYSDDYYGMDVWGQGTTVTVSS
VL: B17 VL with A22T, Y36C, T53N, F91Y, T92Y, F93S
modifications: peptides N-terminally acetylated and C-terminally amidated
B19: CL-511296 (antibody, V domains shown)
VH: QVQLVASGGGVVQPGRSQRLSCAASGFTFSNYGMHWVRQSPGRGLEWVAIIWYDGSNKFYADSVKGRFTISRDNSRNTLFLQMNSLRAEDTAIYYCAKSEERTSDNYFKYGMDVWGQGTTVIVST
VL: B17 VL with A22T, T31S, T53N, T74S, S77N, Y87F, F91Y, F93S
modifications: peptides N-terminally acetylated and C-terminally amidated
B20: CL-447563 (antibody, V domains shown)
VH: B18 VH with S49A
VL: B17 VL with A22T, T53N, F91Y, T92Y, F93S
modifications: peptides N-terminally acetylated and C-terminally amidated
B21: CL-512319 (antibody, V domains shown)
VH: QVQLVESGGGVVQPGRSLRLSCAASGFTFSNFGMHWVRQAPGKGLEWVAVIWYDGSHKFYADSLKGRFTISRDNSKNTLYLQMNNLRAEDTAVYYCARAHPVTTDYDKYGMDVWGQGTTVTVSS
VL: B17 VL with A13S, A22T, T31I, Y36I, T53S, T92Y, F93S, Q99L
modifications: peptides N-terminally acetylated and C-terminally amidated
B22: CL-508758 (antibody, V domains shown)
VH: QVQLVESGGGVVQPGRSLRLSCAASGFTFSNYGMHWVRQTPGRDLEWVAIIWYDGSYKFYADSVKGRFSISRDNSKNTLNLEMKSLRVEDTAVYYCAKAYDTSSDDKYGMDVWGQGTTVTVTS
VL: B17 VL with A22T, T31I, K50R, T53D, E70G, F91Y, T92N, F93S
modifications: peptides N-terminally acetylated and C-terminally amidated
B23: CL-513691 (antibody, V domains shown)
VH: QVQLVESGGDVVQTGRSLRLSCAASGFTFSNYGMHWVRQAPDKGLEWVAIIWYDGSNKFYADSVKGRFTISRDNSKNTLYLHIHSLRAEDTAVYYCARDDRGDSAGPYFVYWGQGTLVTVSS
VL: EIVMTQSPATLSVSPGERATLSCRASQSVSDNLAWYQQRPGQAPRLLIYGASIRATGIPARFGGSGSGTEFTLTISILQSADFAVYYCQQHDSWPWTFGQGTKVEIK
modifications: peptides N-terminally acetylated and C-terminally amidated

The binders below were run against PfCSP full length (Plasmodium falciparum (isolate NF54), UniProt P19597) (assay: ELISA AUC).
Chain of PfCSP full length (P19597 20-375): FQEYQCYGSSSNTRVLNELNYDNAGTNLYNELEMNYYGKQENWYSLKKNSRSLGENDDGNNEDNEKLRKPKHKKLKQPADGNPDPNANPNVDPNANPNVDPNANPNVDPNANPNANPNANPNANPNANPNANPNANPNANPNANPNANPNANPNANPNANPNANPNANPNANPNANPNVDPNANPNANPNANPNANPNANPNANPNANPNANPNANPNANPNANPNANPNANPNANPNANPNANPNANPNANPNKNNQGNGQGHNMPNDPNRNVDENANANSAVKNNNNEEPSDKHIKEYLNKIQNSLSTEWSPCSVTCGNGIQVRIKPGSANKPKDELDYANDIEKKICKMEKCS
B1 showed a binding score of 2.38.
B2 gave a binding score of 2.22.
B3 showed a binding score of 2.31.
In the case of B4, the binding score is reported as 1.5.
With B5 the binding score was 2.2.
B6 was tested, and the binding score was 2.
B7 showed a binding score of 2.2.
B8 was tested, and the binding score was 2.01.
B9 gave a binding score of 2.08.
In the case of B10, the binding score is reported as 1.76.
Binder B11 has a binding score of 1.17.
B12 was tested, and the binding score was 2.3.
In the case of B13, the binding score is reported as 2.4.
With B14 the binding score was 2.6.
B15 showed a binding score of 2.4.
B16 was tested, and the binding score was 2.36.
With B17 the binding score was 2.53.
For B18, the binding score was 2.5.
In the case of B19, the binding score is reported as 2.34.
For B20, the binding score was 2.5.
B21 was tested, and the binding score was 2.08.
B22 gave a binding score of 2.17.
For B23, the binding score was 2.36.

From PMC10720262 (2023)
